Measured values reported in patent publication US20230235013A1 (MABSOLVE, published 2023).
Changes are numbered by the printed parent chain. Numbers in names are those of the source.

B1: anti-CD20 human IgG1 L234T/L235K/G236R (antibody)
heavy: QVQLQQPGAELVKPGASVKMSCKASGYTFTSYNMHWVKQTPGRGLEWIGAIYPGNGDTSYNQKFKGKATLTADKSSSTAYMQLSSLTSEDSAVYYCARSTYYGGDWYFNVWGAGTTVTVSSASTKGPSVFPLAPSSKSTSGGTAALGCLVKDYFPEPVTVSWNSGALTSGVHTFPAVLQSSGLYSLSSVVTVPSSSLGTQTYICNVNHKPSNTKVDKKVEPKSCDKTHTCPPCPAPETKRGPSVFLFPPKPKDTLMISRTPEVTCVVVDVSHEDPEVKFNWYVDGVEVHNAKTKPREEQYNSTYRVVSVLTVLHQDWLNGKEYKCKVSNKALPAPIEKTISKAKGQPREPQVYTLPPSRDELTKNQVSLTCLVKGFYPSDIAVEWESNGQPENNYKTTPPVLDSDGSFFLYSKLTVDKSRWQQGNVFSCSVMHEALHNHYTQKSLSLSPGK
light: QIVLSQSPAILSASPGEKVTMTCRASSSVSYIHWFQQKPGSSPKPWIYATSNLASGVPVRFSGSGSGTSYSLTISRVEAEDAATYYCQQWTSNPPTFGGGTKLEIKRTVAAPSVFIFPPSDEQLKSGTASVVCLLNNFYPREAKVQWKVDNALQSGNSQESVTEQDSKDSTYSLSSTLTLSKADYEKHKVYACEVTHQGLSSPVTKSFNRGEC
notes: also called 2-58; copies: 2 + 2
B2: anti-CD20 human IgG1 L234Q/L235D/G236R (antibody)
heavy: B1 heavy with T238Q, K239D
light: B1 light
notes: also called 2-28; copies: 2 + 2
B3: anti-CD20 human IgG1 L234K/L235Q/G236R (antibody)
heavy: B1 heavy with T238K, K239Q
light: B1 light
notes: also called 2-22; 1-87
B4: anti-CD20 human IgG1 L234R/L235R/G236R (antibody)
heavy: B1 heavy with T238R, K239R
light: B1 light
notes: also called 2-43; copies: 2 + 2
B5: anti-CD20 human IgG1 G236R/L328R (antibody)
heavy: not shown
light: B1 light
notes: also called 2-68
B6: anti-CD20 human IgG1 L234Q/L235R/G236R (antibody)
heavy: B1 heavy with T238Q, K239R
light: B1 light
notes: also called 2-32; copies: 2 + 2
B7: anti-CD20 human IgG1 L235G/G236R (antibody)
heavy: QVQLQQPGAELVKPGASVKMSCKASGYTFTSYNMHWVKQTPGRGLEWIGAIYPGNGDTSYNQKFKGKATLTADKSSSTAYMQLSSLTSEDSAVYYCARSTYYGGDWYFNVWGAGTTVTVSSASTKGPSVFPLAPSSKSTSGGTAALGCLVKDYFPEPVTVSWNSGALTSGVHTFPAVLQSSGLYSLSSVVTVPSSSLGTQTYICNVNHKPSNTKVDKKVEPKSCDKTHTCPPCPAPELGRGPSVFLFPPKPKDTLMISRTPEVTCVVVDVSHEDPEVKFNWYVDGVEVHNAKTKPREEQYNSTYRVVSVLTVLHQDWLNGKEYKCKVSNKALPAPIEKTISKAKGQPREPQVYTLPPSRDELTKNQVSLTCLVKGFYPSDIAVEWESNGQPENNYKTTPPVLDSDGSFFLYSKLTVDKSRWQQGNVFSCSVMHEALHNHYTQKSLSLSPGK
light: B1 light
notes: also called 2-83
B8: anti-CD20 human IgG1 L234S/L235V/G236R (antibody)
heavy: B1 heavy with T238S, K239V
light: B1 light
notes: also called 2-53
B9: anti-CD20 human IgG1 L235V/F243L/R292P/Y300L/P396L (antibody)
heavy: B1 heavy with T238L, K239V, R240G, F247L, R296P, Y304L, P400L
light: B1 light
notes: also called 2-72
B10: anti-CD20 human IgG1 L234Q/L235A/G236R (antibody)
heavy: not shown
light: B1 light
notes: also called 2-27; copies: 2 + 2
B11: anti-CD20 human IgG1 L234T/L235S/G236R (antibody)
heavy: B1 heavy with K239S
light: B1 light
notes: also called 2-62; copies: 2 + 2
B12: anti-CD20 human IgG1 L234A/G236R (antibody)
heavy: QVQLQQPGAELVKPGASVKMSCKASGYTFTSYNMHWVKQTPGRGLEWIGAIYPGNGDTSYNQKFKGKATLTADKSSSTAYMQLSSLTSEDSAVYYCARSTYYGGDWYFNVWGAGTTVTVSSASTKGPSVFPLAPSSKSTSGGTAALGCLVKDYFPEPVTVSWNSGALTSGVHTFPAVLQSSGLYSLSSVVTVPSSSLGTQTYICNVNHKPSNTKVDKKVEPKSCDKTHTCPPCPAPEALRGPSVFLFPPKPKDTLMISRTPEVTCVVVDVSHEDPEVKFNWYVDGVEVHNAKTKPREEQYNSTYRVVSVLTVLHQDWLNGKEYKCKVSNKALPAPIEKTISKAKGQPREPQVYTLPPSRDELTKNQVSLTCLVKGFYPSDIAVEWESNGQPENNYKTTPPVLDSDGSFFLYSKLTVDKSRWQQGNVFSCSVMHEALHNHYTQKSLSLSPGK
light: B1 light
notes: also called 1-9
B13: anti-CD20 human IgG1 L234D/G236R (antibody)
heavy: not shown
light: B1 light
notes: also called 2-8; 1-24
B14: anti-CD20 human IgG1 L234R/L235Q/G236R (antibody)
heavy: B1 heavy with T238R, K239Q
light: B1 light
notes: also called 2-42
B15: anti-CD20 human IgG1 L234D/L235S/G236R (antibody)
heavy: B1 heavy with T238D, K239S
light: B1 light
notes: also called 1-29; 2-10; copies: 2 + 2
B16: anti-CD20 human IgG1 L234A/L235A/G236R (antibody)
heavy: not shown
light: B1 light
notes: also called 2-2; 1-2
B17: anti-CD20 human IgG1 L234T/G236R (antibody)
heavy: not shown
light: B1 light
notes: also called 2-59; 1-159
B18: anti-CD20 human IgG1 L234A/L235S/G236R (antibody)
heavy: not shown
light: B1 light
notes: also called 1-14; 2-4; copies: 2 + 2
B19: anti-CD20 human IgG1 L234Q/L235T/G236R (antibody)
heavy: B1 heavy with T238Q, K239T
light: B1 light
notes: also called 1-120
B20: anti-CD20 human IgG1 L234H/L235S/G236R (antibody)
heavy: B1 heavy with T238H, K239S
light: B1 light
notes: also called 2-21; 1-74

How the values were obtained:
[1] = target: T1, Histidine-tagged recombinant human FcγRI (CD64) (human, UniProt P12314 16-288); test: SPR, culture supernatant, captured His-FcγRI;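 note: biacore T200 SPR at 25 °C, anti-His capture, supernatants of HEK293 cells expressing IgG1 Fc variants injected 1 min, reference-subtracted response read 55 s after injection start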
T1 construct: bought; also called Sino Biological Cat. No. 12056-H08H

[2] = target: T2, Histidine-tagged recombinant human FcγRI (CD64) (human, UniProt P12314 16-288, limits assumed); test: SPR, His-FcγRI captured; Expt 2;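 note: biacore T200 SPR at 25 °C, Fc-variant antibodies at 100 µg/mL flowed 1 min over anti-His-captured receptor, signal read near injection end minus third buffer blank; antibody analyte injected at 100 µg/mL for 1 min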
T2 construct: bought

[3] = target: T2, Histidine-tagged recombinant human …; test: SPR, His-FcγRI captured; Expt 3;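 note: biacore T200 SPR at 25 °C, Fc-variant antibodies at 100 µg/mL flowed 1 min over anti-His-captured FcγRI, signal taken just before injection end minus a buffer blank cycle; antibody analyte injected at 100 µg/mL for 1 min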
[4] = target: T2, Histidine-tagged recombinant human …; test: SPR, His-FcγRI captured; Expt 1;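 note: SPR at 25 °C on anti-His antibody chip capturing FcγRI, Fc-variant antibodies injected at 100 µg/mL for 1 min, signal near end of injection minus buffer blank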
[5] = target: T2, Histidine-tagged recombinant human …; test: SPR, His-FcγRI captured; mean;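 note: biacore T200 SPR at 25 °C, anti-His surface capturing FcγRI, Fc-variant antibodies injected at 100 µg/mL for 1 min, signal near injection end minus third buffer blank, three repeats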
Experimental: Binding analysis was carried out by surface plasmon resonance at 25° C. using a Biacore® T200 instrument with Biacore® T200 control software. The sample compartment was held at 5° C. The running buffer (HBS-EP+) consisted of 0.01 M HEPES pH 7.4, containing 0.15 M NaCl, 3 mM EDTA, and 0.05% v/v Surfactant P20. Methods were run using the manufacturer's standard method wizards as described in the Biacore® T200 Instrument Handbook.
The cell was activated by treatment with EDC/NHS for 7 min. The antibody was diluted to 10 μg/mL in 10 mM sodium acetate pH 5.0 and injected for 7 min at 5 μL/min. The flow cell was deactivated by injection of 1M ethanolamine for 7 min. This process was repeated in the absence of anti-his antibody on a separate flow cell to generate a reference surface. […] Samples of purified antibodies comprising variant Fc regions (1 mg/mL in PBS) were diluted with running buffer to 100 μg/mL and were injected for 1 min at 30 μL/min and allowed to disassociate for 2 min. Between each cycle, the chip was regenerated by injection of 10 mM glycine pH 3.0 for 0.5 min at a flow rate of 30 μL/min and recharged with a fresh injection of FcγRI. At the beginning of each experiment, three blank cycles were run, with buffer alone being injected instead of test sample. The average SPR signal (relative to the reference cell) was measured in a window approximately 8 to 13 seconds before the injection of test sample (baseline) and approximately 3 to 8 seconds before the end of injection (response). The response of the third of the blank (buffer) samples was subtracted from the response of each test sample in order to allow for any dissociation of the bound FcγRI giving a corrected response for each test sample. The whole experiment was repeated three times with the test samples being analysed in different orders each time.

Binder | Mean binding response [1] [RU] | Corrected response (RU) [3] [RU] | Corrected response (RU) [4] [RU] | further results
B1 | 6.7 |  |  | 
B2 | 18.9 |  |  | 
B3 |  | 5.8 |  | Corrected response (RU) [2]: 6.1 RU
B4 | 17.2 |  |  | 
B5 |  | 65 | 8.8 | 
B6 | 20.1 |  |  | 
B7 |  |  |  | Corrected response (RU) [2]: 125 RU
B8 |  | 4.3 | 0.7 | Corrected response (RU), Mean [5]: 2.4 RU
B9 |  | 2510 |  | 
B10 | 13.4 |  |  | 
B11 | 25.4 |  |  | 
B12 |  | 74.7 |  | Corrected response (RU), Mean [5]: 70.4 RU; Corrected response (RU) [2]: 49.3 RU
B13 |  |  | 135 | Corrected response (RU) [2]: 77.7 RU
B14 |  | 7.3 | -1 | 
B15 | 26.3 |  |  | 
B16 |  | 5.2 | 6.3 | Corrected response (RU), Mean [5]: 4.4 RU
B17 |  |  | 156 | 
B18 | 32.1 |  |  | 
B19 |  | 1.4 |  | 
B20 |  | 5.9 | 0.7 | 
